Stoichiometry N (Fab per trimer) data for 1 substance are collected here from article PMC4395007.

The experiment deals with BG505 SOSIP.664 gp140 trimer (HIV-1) (UniProt Q2N0S6). Nature of the experiment: negative-stain electron microscopy.

As for CAP256-VRC26.09 Fab, the stoichiometry N (Fab per trimer) worked out at 1.
